Source: patent publication US20250281630A1 (TORAY INDUSTRIES, published 2025)
Substitutions are numbered along the chain they refer to.

T1: mouse CAPRIN-1 on mouse cancer cells (mouse, UniProt Q60865 2-707)
T1 construct: whole, on cells
T1 sequence (looked up): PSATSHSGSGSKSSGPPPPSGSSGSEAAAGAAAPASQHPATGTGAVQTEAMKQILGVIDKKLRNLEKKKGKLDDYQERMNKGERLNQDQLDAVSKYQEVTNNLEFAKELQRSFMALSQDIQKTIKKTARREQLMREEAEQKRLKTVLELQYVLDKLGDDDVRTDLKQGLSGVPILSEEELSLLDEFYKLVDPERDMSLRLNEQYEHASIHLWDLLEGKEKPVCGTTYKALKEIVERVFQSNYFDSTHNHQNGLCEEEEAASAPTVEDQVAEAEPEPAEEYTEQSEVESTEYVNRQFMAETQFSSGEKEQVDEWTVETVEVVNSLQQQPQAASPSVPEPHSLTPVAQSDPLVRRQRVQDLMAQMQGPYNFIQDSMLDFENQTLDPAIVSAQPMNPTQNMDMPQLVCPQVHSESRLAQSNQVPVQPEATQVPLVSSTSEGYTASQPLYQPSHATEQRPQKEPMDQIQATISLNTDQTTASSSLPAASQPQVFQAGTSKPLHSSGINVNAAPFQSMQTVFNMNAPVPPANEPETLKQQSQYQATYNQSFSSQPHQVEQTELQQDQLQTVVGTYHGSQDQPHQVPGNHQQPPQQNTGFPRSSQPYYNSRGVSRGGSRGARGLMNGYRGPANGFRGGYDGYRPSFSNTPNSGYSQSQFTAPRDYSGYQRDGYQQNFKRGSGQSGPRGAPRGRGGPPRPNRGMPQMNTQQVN

T2: human CAPRIN-1 on the cell membrane surface of human cancer cells (human, UniProt Q14444 2-709)
T2 construct: whole, on cells
T2 sequence (looked up): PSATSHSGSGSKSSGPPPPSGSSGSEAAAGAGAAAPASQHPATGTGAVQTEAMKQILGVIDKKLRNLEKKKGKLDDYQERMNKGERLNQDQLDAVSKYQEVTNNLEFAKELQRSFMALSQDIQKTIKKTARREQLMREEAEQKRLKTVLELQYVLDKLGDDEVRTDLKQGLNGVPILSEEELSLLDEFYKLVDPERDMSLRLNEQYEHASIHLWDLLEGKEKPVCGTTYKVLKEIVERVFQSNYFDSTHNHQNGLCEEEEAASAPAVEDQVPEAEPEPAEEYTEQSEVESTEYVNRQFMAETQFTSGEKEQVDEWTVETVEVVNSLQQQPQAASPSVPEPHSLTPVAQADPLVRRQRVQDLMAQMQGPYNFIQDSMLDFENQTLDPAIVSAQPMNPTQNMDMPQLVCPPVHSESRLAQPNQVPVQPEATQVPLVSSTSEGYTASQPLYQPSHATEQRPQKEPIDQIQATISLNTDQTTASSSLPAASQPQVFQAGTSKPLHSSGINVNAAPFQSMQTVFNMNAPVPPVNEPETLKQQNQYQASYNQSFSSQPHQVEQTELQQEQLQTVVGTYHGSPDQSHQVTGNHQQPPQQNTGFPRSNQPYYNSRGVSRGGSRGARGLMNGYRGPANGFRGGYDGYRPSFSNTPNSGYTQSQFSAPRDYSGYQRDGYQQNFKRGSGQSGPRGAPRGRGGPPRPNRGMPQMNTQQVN

B1: Conjugate 15 (antibody, human IgG1, V domains shown)
VH: AVTLDESGGGLQTPGGALSLVCKASGFTFSGYDMLWVRQAPGKGLEWVAGIGSTGGGTDYGAAVKGRATISRDNGQSTVRLQLNNLRAEDTATYYCAKVAGGCNSGYCRDSPGSIDAWGHGTEVIVS
VL: AVTQQPASVSANPGETVKITCSGGGSRNYYGWYQQKSPGSVPVTVIYYDDQRPSNIPSRFSGALSGSTSTLTITGVQADDEAVYFCGSADSNTYEGSFGAGTTLTVL
notes: human IgG1 constant regions; also called conjugate with MMAE using humanized antibody #9
B2: Conjugate 95 (antibody, V domains shown)
VH: B1 VH
VL: B1 VL
notes: as for B1
B3: Conjugate 20 (antibody, human IgG1, V domains shown)
VH: DAELVKPGASVKISCKASGYTFTDHSIHWVQQKPEQGLEWIGYISPGNGNIKYNEKFKGKATLTADKSSSTAYMQLNSLTSEDSAVYFCKRSLGRGGPYYFDYWGQGTTVTVSS
VL: DIVLTQAAPSLPVTPGESVSISCRSSKSLLHSNGNTYLYWFLQRPGQSPQLLIYRMSNLASGVPDRFSGSGSGTAFTLRISRVEAEDVGVYYCMQHREYPVTFGSGPN
notes: human IgG1 constant regions; also called conjugate with MMAE using humanized antibody #14
B4: Conjugate 100 (antibody, V domains shown)
VH: B3 VH
VL: B3 VL
notes: as for B3
B5: Conjugate 42 (antibody, human IgG1, V domains shown)
VH: EVQLVESGGGLVQPGGSLRLSCAASGFSLSSHSLGWVRQAPGKGLEWIGDIRSGGSAYYANWAKGRFTISRDNSKNTLYLQMNSLRAEDTAVYYCTRTNGPSDLTNRLDLWGQGTLVTVSS
VL: QVLTQSPSSLSASVGDRVTINCQASQSLYNNENLAWFQQKPGKVPKRLIYGASTLASGVSSRFSGSGSGTEFTLTISSLQCEDFAIYYCLGEFSCGSADCFAFGGGTKVEIK
notes: human IgG1 constant regions; also called conjugate with MMAE using humanized antibody #36
B6: Conjugate 124 (antibody, V domains shown)
VH: B5 VH
VL: EQVLTQSPSSLSASVGDRVTINCQASQSLYNNENLAWFQQKPGKVPKRLIYGASTLASGVSSRFSGSGSGTEFTLTISNLQPEDFAIYYCLGEFSCGSADCFAFGGGTKVEIK
notes: human IgG1 constant regions; also called conjugate with MMAE using humanized antibody #38
B7: Conjugate 122 (antibody, V domains shown)
VH: B5 VH
VL: B5 VL
notes: as for B5
B8: Conjugate 44 (antibody, human IgG1, V domains shown)
VH: B5 VH
VL: B6 VL
notes: as for B6
B9: Conjugate 123 (antibody, V domains shown)
VH: B5 VH with Y94F
VL: B5 VL
notes: human IgG1 constant regions; also called conjugate with MMAE using humanized antibody #37
B10: Conjugate 125 (antibody, V domains shown)
VH: B5 VH with Y94F
VL: B6 VL with Q2I, I87T
notes: human IgG1 constant regions; also called conjugate with MMAE using humanized antibody #39
B11: Conjugate 126 (antibody, V domains shown)
VH: B5 VH
VL: B6 VL with Q2I, I87T
notes: human IgG1 constant regions; also called conjugate with MMAE using humanized antibody #40
B12: Conjugate 45 (antibody, human IgG1, V domains shown)
VH: B5 VH with Y94F
VL: B6 VL with Q2I, I87T
notes: as for B10
B13: Conjugate 8 (antibody, human IgG1, V domains shown)
VH: B5 VH with V2Q, Q3S
VL: B5 VL
notes: human IgG1 constant regions; also called conjugate with MMAE using humanized antibody #2
B14: Conjugate 47 (antibody, human IgG1, V domains shown)
VH: B5 VH with Y94F
VL: B6 VL
notes: human IgG1 constant regions; also called conjugate with MMAE using humanized antibody #41
B15: Conjugate 88 (antibody, V domains shown)
VH: B5 VH with V2Q, Q3S
VL: B5 VL
notes: as for B13
B16: Conjugate 46 (antibody, human IgG1, V domains shown)
VH: B5 VH
VL: B6 VL with Q2I, I87T
notes: as for B11
B17: Conjugate 43 (antibody, human IgG1, V domains shown)
VH: B5 VH with Y94F
VL: B5 VL
notes: as for B9
B18: Conjugate 127 (antibody, V domains shown)
VH: B5 VH with Y94F
VL: B6 VL
notes: as for B14
B19: Conjugate 19 (antibody, human IgG1, V domains shown)
VH: GAELVRSGASVKMSCKASGYSFTDYNMYWVKQTPGQGLEWIGYIYPGNGGTNYNQKFKGKATLTADTSSSTAYMQISSLTSEDSAVYFCARDYDDGGYAMDYWGQGTTVTVSS
VL: DIQMTQSPASLSASVGETVTITCRASGNIHNYLTWYQQKQGKSPQLLVYNAKTLADGVPSRFSGSGSGTQYSLKINRLQPEDFGSYYCQHFWNIPWTFGGGTKLNSR
notes: human IgG1 constant regions; also called conjugate with MMAE using humanized antibody #13
B20: Conjugate 99 (antibody, V domains shown)
VH: B19 VH
VL: B19 VL
notes: as for B19

Target: T1, mouse CAPRIN-1 on mouse cancer cells
Experiment: flow cytometry, Renca and 4T1 cells

Row | binding result | Binder
1 | binds | B1
2 | binds | B2
3 | binds | B3
4 | binds | B4
5 | binds | B5
6 | binds | B6
7 | binds | B7
8 | binds | B8
9 | binds | B9
10 | binds | B10
11 | binds | B11
12 | binds | B12
13 | binds | B13
14 | binds | B14
15 | binds | B15
16 | binds | B16
17 | binds | B17
18 | binds | B18
19 | binds | B19
20 | binds | B20

Target: T2, human CAPRIN-1 on the cell membrane …
Experiment: flow cytometry, BT474 cells
Procedure: The tube was left at 4° C. for 1 hour. After washing with PBS, Alexa 488-labeled anti-rabbit IgG (H+L) diluted 100-fold with PBS(-) containing 0.5% FBS (0.5% FBS-PBS(-)) was added thereto, and the tube was left at 4° C. for 1 hour. After washing with 0.5% FBS-PBS(-), the cells were reacted with BD Horizon Fixable Viability Stain (FVS) Reagents (FVS450, Becton, Dickinson and Company) to stain dead cells, and the fluorescence intensity was then measured using FACSFortessa™ (Becton, Dickinson and Company).

Row | binding result | Binder
21 | binds | B1
22 | binds | B2
23 | binds | B3
24 | binds | B4
25 | binds | B5
26 | binds | B6
27 | binds | B7
28 | binds | B8
29 | binds | B9
30 | binds | B10
31 | binds | B11
32 | binds | B12
33 | binds | B13
34 | binds | B14
35 | binds | B15
36 | binds | B16
37 | binds | B17
38 | binds | B18
39 | binds | B19
40 | binds | B20
